How the values were obtained:
[1] = molecular target: MBP-5-HT3A-ICD fusion protein (cytoplasmic domain of the mouse 5-HT3A receptor fused to the C-terminus of maltose binding protein) (mouse); test: SEC-MALS; Superdex 200 HR 10/300 GL, 20 mM HEPES, 150 mM NaCl, 5 mM maltose, 0.01% NaN3, pH 7.4, ambient temperature, 0.1-1.0 mg protein loaded
[2] = molecular target: MBP-5-HT3A-ICD fusion protein (cytoplasmic domain of the mouse 5-HT3A receptor fused to the C-terminus of maltose binding protein) (mouse); test: SEC; Superdex 200 10/300 GL, 20 mM HEPES, 150 mM NaCl, 0.02% NaN3, pH 7.4; weight from calibration with standard proteins
[3] = molecular target: MBP-5-HT3A-ICD fusion protein (cytoplasmic domain of the mouse 5-HT3A receptor fused to the C-terminus of maltose binding protein) (mouse); test: cross-linking; glutaraldehyde by vapor diffusion at 30 °C, 0.5 μg purified protein in buffer B; resolved by SDS-PAGE with Western blot (anti-MBP) or denaturing capillary gel electrophoresis

stoichiometry N [1]: 5
stoichiometry N [2]: 5
stoichiometry N [3]: 5
Substance: MBP-5-HT3A-ICD fusion protein (cytoplasmic domain of the mouse 5-HT3A receptor fused to the C-terminus of maltose binding protein) (domain or fragment)

Reference: PMC4820698
